US5833943, “Minimum recognition unit of a pem mucin tandem repeat specific monoclonal antibody” (Cancer Therapeutics Limited, dated 1998)
No end group written: not given here.

Molecular target: mucin molecule associated with epithelial tumours (Homo sapiens (Human), UniProt P15941)
Experiment: synthetic CDR peptides of NM-2 VH; method not told at this place

B1: peptide REPPTRTFAYWG (peptide)
peptide: REPPTRTFAYWG
modifications: also: I125 label, position not given here
binding result: binds
